One experiment addresses T1, Kap114pΔ(932-941) (S. cerevisiae, UniProt P53067 1-1004, Δ(932-941)).
T1 construct: also called GST-Kap114p (Δ932-941); source: E. coli Rosetta, purified (GST resin, MonoQ, Superdex 200)
T1 sequence (looked up): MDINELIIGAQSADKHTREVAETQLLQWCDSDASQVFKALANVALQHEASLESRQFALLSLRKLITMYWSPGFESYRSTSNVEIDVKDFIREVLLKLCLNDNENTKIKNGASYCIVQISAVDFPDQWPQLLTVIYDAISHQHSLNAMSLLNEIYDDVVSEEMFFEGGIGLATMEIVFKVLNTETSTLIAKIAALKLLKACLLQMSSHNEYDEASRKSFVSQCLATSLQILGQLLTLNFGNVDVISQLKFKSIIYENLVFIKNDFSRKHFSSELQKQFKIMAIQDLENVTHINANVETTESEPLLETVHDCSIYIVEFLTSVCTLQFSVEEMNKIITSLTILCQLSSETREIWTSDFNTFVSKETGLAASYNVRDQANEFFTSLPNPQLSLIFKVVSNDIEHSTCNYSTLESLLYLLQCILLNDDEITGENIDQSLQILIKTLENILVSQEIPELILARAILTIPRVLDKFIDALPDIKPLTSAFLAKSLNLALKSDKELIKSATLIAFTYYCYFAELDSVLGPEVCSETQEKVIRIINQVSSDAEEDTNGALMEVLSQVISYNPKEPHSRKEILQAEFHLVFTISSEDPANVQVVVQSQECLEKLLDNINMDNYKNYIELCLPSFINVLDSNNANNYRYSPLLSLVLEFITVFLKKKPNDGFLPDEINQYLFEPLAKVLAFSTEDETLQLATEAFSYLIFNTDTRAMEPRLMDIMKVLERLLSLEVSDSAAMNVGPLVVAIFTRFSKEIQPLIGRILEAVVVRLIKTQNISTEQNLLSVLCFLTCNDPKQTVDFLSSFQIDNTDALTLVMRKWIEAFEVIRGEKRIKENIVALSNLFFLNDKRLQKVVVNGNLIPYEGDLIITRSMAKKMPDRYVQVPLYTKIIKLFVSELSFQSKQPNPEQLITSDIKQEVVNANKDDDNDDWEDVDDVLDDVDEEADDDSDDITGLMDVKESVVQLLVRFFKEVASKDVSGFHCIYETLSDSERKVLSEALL
Nature of the experiment: ITC; MicroCal iTC200, 25 °C, 20 mM HEPES pH 7.4, 150 mM NaCl; low concentration: 25 µM wild type or mutant Kap114p in the sample cell, 250 µM wild type or mutant yTBPC in the syringe; triplicate. Particulars: both partners purified.

For a further experiment, the target named is T2, Kap114pΔY939 (S. cerevisiae, UniProt P53067 1-1004, ΔY939).
T2 construct: Kap114p, S. cerevisiae, full length with residue Y939 deleted; also called Kap114p(DY939); source: E. coli (Rosetta strain), purified (GST resin, MonoQ, Superdex 200)
T2 sequence (looked up): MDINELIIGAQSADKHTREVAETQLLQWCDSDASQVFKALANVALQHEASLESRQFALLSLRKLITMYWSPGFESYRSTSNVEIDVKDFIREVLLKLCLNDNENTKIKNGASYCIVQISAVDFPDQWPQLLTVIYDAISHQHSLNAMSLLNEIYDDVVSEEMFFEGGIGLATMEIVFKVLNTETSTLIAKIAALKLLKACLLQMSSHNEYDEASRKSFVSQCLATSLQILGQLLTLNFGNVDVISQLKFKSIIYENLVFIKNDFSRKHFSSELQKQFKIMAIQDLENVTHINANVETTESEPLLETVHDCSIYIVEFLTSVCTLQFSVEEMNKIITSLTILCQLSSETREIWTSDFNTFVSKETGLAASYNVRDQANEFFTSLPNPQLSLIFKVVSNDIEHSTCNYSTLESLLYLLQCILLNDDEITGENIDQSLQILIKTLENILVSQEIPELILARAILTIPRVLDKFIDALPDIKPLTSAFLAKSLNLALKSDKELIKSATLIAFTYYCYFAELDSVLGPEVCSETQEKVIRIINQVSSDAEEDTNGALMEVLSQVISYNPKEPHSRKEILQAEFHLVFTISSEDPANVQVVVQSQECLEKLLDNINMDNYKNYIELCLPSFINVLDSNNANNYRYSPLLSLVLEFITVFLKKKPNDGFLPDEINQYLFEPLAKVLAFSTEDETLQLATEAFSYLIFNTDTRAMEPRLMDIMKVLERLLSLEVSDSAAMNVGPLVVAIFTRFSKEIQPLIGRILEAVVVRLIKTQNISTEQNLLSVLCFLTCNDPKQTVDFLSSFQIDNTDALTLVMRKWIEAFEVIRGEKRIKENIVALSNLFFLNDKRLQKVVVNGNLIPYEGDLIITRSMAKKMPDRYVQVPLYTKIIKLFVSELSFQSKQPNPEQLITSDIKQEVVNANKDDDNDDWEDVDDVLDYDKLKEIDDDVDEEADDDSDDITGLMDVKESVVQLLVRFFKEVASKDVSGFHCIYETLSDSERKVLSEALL
Nature of the experiment: ITC; Kap114p (wild type or mutant) 50 uM in the sample cell, partner 500 uM in the syringe; 25 °C; 20 mM HEPES pH 7.4, 150 mM NaCl; triplicate. As to conditions: both partners purified.

B1: yTBP^C wild type (core domain of yeast TATA-box binding protein, a.a. 61-240) (domain or fragment, S. cerevisiae, UniProt P13393 61-240, looked up)
chain: SGIVPTLQNIVATVTLGCRLDLKTVALHARNAEYNPKRFAAVIMRIREPKTTALIFASGKMVVTGAKSEDDSKLASRKYARIIQKIGFAAKFTDFKIQNIVGSCDVKFPIRLEGLAFSHGTFSSYEPELFPGLIYRMVKPKIVLLIFVSGKIVLTGAKQREEIYQAFEAIYPVLSEFRKM
notes: modified pET28a, 6xHis tag followed by a PreScission site; also called yTBPC WT; His-yTBP (61-240); source: E. coli Rosetta, purified (Ni-NTA, HiTrap SP, Superdex 75); not shown: His6, N-terminal, cleaved
Turning to B1, in the experiment with Kap114pΔ(932-941), the affinity, expressed as Kd, was 0.0799 µM.

B2: core domain of yTBP (a.a. 61-240) (domain or fragment, S. cerevisiae, UniProt P13393 61-240, looked up)
chain: SGIVPTLQNIVATVTLGCRLDLKTVALHARNAEYNPKRFAAVIMRIREPKTTALIFASGKMVVTGAKSEDDSKLASRKYARIIQKIGFAAKFTDFKIQNIVGSCDVKFPIRLEGLAFSHGTFSSYEPELFPGLIYRMVKPKIVLLIFVSGKIVLTGAKQREEIYQAFEAIYPVLSEFRKM
notes: 61-240; also called yTBP^C; yTBPc; source: E. coli (Rosetta strain), purified (Ni-NTA, HiTrap SP, Superdex 75); not shown: 6xHis, N-terminal, cleaved
Molecule B2 came in with a Kd in the experiment with Kap114pΔY939 of 0.0371 µM.

The values above are taken from publication PMC10491584, “Structural convergence endows nuclear transport receptor Kap114p with a transcriptional repressor function toward TATA-binding protein” (Nature Communications, 2023).
